These results are taken from US11834499 (University of California, dated 2023).

Test [1] has as its target T1, human Claudin-18.2 (CLDN18.2) (human).
T1 construct: On cells: fused to GFP in engineered HEK293T cells (clone C12), endogenous in HUPT4 and SNU601 cells; also called human CLDN18.2
Put plainly: FACS, 1.5 ug antibody, HUPT4 cells (endogenous CLDN18.2). Background: A flow cytometer gives signals particle by particle.
Protocol: FACS assays were carried out to determine relative antigen binding strengths of the humanized antibodies (at either 1.5 μg or 0.3 μg) for binding to CLDN18.2 as expressed by the indicated cancer cell lines.

The target in test [2] is T1, human Claudin-18.2 (CLDN18.2). Put plainly: FACS, 1.5 ug antibody, HEK293T-CLDN18.2 C12 clone cells.
The target is the same in test [3]. Briefly: KinExA, cell-based; HEK293T-CLDN18.2-mGFP C12, Versene; Error% 2.35; 95% CI 2.12nM - 6.47nM; equilibrium curves 500pM, 2nM, 10nM.
Protocol: (§1) For each KD measurement, in general, at least two antibody concentration curves were prepared using the same batch of cells (same passage) to avoid changes in expression level from passage to passage. Briefly, either HEK293T CLDN18.2-mGFP C12 cells (engineered overexpression cell line) or HUPT4 cells (native positive cell line) were detached using Versene. Cells were then equilibrated in different concentrations of the antibody solutions, respectively, in 2% FBS/DMEM or 2% FBS/RPMI at 4° C. overnight. Cells concentrations started with 1.8 ×10^7 cells/ml and 2-fold serial dilution was performed to 10 points. In addition, antibody solution only (Signal 100%) and nonspecific binding (NSB) buffer only were included in each curve. Next day, spin the cells at 1500 rpm for 10 mins and saved the supernatant for measurement. […] The KD and antigen expression level were calculated using two antibody curves analyzed by n-curve analysis.
Test [4] has the same target. Put plainly: KinExA, cell-based; HUPT4, Versene; Error% 3.57; 95% CI 0.31nM - 1.34nM; equilibrium curves 1nM, 20nM.
Protocol: as §1
Test [5] shares this target. Put plainly: KinExA, cell-based; HEK293T-CLDN18.2-mGFP C12, Versene; Error% 1.84; 95% CI 2.03nM - 4.44nM; equilibrium curves 500pM, 2nM, 10nM. On the technique in general: In KinExA the mixture passes briefly over coated beads that capture the unbound partner.
Protocol: as §1
Test [6] shares this target. Put plainly: KinExA, cell-based; HUPT4, Versene; Error% 3.73; 95% CI 0.87nM - 3.23nM; equilibrium curves 1nM, 20nM.
Protocol: as §1
Test [7] has the same target. Briefly: KinExA, cell-based; HUPT4, Versene; Error% 2.72; 95% CI 0.58nM - 1.43nM; equilibrium curves 1nM, 20nM.
Protocol: as §1
The target is the same in test [8]. Briefly: KinExA, cell-based; HEK293T-CLDN18.2-mGFP C12, Versene; Error% 7.72; 95% CI 0.18nM - 11.91nM; equilibrium curves 500pM and 10nM.
Protocol: as §1
The target is the same in test [9]. Briefly: flow cytometry; HEK293T CLDN18.2 over HEK293T parental [Cont.].
Protocol: (§2) The samples were then measured by Intellicyt® iQue Advanced Flow Cytometry Platform.
Test [10] shares this target. Briefly: flow cytometry; HUPT4 over M202 [Cont.].
Protocol: as §2
Test [11] shares this target. Put plainly: KinExA, cell-based; HUPT4, Versene; Error% 3.90; 95% CI 0.28nM - 1.32nM; equilibrium curves 1nM, 20nM.
Protocol: as §1
Test [12] shares this target. Put plainly: KinExA, cell-based; HEK293T-CLDN18.2-mGFP C12, Versene; Error% 7.19; 95% CI 0.43nM - 6.90nM; equilibrium curves 500pM and 10nM.
Protocol: as §1

B1: HuAb307-3 (antibody, V domains shown)
VH: EVQLLESGGGLVQPGGSLRLSCAASGFTFSSYTMSWVRQAPGKGLEWVATIIIGGSYTYYADSVKGRFTISRDNSKNTLYLQMNSLRAEDTAVYYCTRLVKGNAMDYWGQGTLVTVSS
VL: DIVMTQSPDSLAVSLGERVTMNCKSSQSLLNSGNQKNYLSWYQQKPGQPPKLLFYWASTRESGVPDRFSGSGSGTDFTLTISSVQAEDVAVYYCQNDYSYPFTFGQGTKLEIK
notes: Humanized, expressed as full-length IgG
For the molecule B1, the figures for the “FACS signal (relative antigen binding strength)” value in test [1] and in test [2] were 34000 and 151000, respectively. In addition, the figures for the Kd in [3] and in test [4] were 3.65 nM and 0.69 nM, respectively.

B2: 02-0358-h3 (antibody, V domains shown)
VH: EVQLVESGGGLVQPGGSLRLSCAVSGFTFSSFGMHWVRQAPGKGLEWVAYISSGTTNIYYADSVKGRFTVSRDNAKNSLYLQMNSLRAEDTAVYYCVRSGYYGNSLDYWGQGTLVTVSS
VL: DIVMTQSPDSLAVSLGERVTMNCKSSQSLFNSGNQRNYLTWYQQKPGQPPKLLIYWASTRESGVPDRFSGSGSGTDFTLTISSVQAEDVAVYYCQNVYIYPLTFGQGTKLEIK
notes: Humanized IgG
For B2, the Kd (usually the constant that tells how readily two partners part at equilibrium) in test [5] was found to be 3 nM; in [6] it was 1.7 nM.

B3: 02-0307-h6 (antibody, V domains shown)
VH: EVQLLESGGGLVQPGGSLRLSCAASGFTFSSYTMSWVRQAPGKGLEWVATIIIGGSYTYYADSVKGRFTISRDNSKNTLYLQMNSLRAEDTAVYYCTRLVKGNAMDYWGQGTLVTVSS
VL: DIVMTQSPDSLAVSLGERVTMNCKSSQSLLSSGNQKNYLSWYQQKPGQPPKLLFYWASTRESGVPDRFSGSGSGTDFTLTISSVQAEDVAVYYCQNDYSYPFTFGQGTKLEIK
notes: Humanized IgG (detected with anti-human IgG Fc)
Consider B3, for which the figures for the Kd in test [7] and in test [8] were 0.93 nM and 1.42 nM, respectively. In test [9], the “ratio OE” value came to 482. Also, in test [10], the ratio native worked out at 137.

B4: 02-0358-h5 (antibody, V domains shown)
VH: EVQLVESGGGLVQPGGSLRLSCAVSGFTFSSFGMHWVRQAPGKGLEWVAYISSGTTNIYYADSVKGRFTVSRDNAKNSLYLQMNSLRAEDTAVYYCVRSGYYGNSLDYWGQGTLVTVSS
VL: DIVMTQSPDSLAVSLGERVTMNCKSSQSLFSSGNQRNYLTWYQQKPGQPPKLLIYWASTRESGVPDRFSGSGSGTDFTLTISSVQAEDVAVYYCQNVYIYPLTFGQGTKLEIK
notes: Humanized IgG
Turning to B4, the values for the Kd in [11] and in test [12] were 0.67 nM and 1.81 nM, respectively. For the same molecule, in test [9], the “ratio OE” value was 574. Also, the ratio native in test [10] was determined as 111.
